What was measured:
Test in all cases: EMSA; with POLγB; 10 mM Mg2+, 3 mM dCTP, 0.3 mM ddGTP; EMSA: 15 µl, 10 fmol DNA, 450 fmol POLγA, 1.8 pmol POLγB where indicated; 20 mM Tris-HCl pH 7.5, 1 mM DTT, 0.1 mg/ml BSA, 10 mM MgCl2, 10% glycerol, 3 mM dCTP
POLγA H277L;POLγB = POLγA H277L;POLγB (human?;human?, UniProt P54098;Q9UHN1 26-1239;25-485, H277L|)
POLγA G303R;POLγB = POLγA G303R;POLγB (human?;human?, UniProt P54098;Q9UHN1 26-1239;25-485, G303R|)
POLγA L304R;POLγB = POLγA L304R;POLγB (human?;human?, UniProt P54098;Q9UHN1 26-1239;25-485, L304R|)
Sequence of POLγA L304R;POLγB (P54098 26-1239 L304R, chain 1 of 2): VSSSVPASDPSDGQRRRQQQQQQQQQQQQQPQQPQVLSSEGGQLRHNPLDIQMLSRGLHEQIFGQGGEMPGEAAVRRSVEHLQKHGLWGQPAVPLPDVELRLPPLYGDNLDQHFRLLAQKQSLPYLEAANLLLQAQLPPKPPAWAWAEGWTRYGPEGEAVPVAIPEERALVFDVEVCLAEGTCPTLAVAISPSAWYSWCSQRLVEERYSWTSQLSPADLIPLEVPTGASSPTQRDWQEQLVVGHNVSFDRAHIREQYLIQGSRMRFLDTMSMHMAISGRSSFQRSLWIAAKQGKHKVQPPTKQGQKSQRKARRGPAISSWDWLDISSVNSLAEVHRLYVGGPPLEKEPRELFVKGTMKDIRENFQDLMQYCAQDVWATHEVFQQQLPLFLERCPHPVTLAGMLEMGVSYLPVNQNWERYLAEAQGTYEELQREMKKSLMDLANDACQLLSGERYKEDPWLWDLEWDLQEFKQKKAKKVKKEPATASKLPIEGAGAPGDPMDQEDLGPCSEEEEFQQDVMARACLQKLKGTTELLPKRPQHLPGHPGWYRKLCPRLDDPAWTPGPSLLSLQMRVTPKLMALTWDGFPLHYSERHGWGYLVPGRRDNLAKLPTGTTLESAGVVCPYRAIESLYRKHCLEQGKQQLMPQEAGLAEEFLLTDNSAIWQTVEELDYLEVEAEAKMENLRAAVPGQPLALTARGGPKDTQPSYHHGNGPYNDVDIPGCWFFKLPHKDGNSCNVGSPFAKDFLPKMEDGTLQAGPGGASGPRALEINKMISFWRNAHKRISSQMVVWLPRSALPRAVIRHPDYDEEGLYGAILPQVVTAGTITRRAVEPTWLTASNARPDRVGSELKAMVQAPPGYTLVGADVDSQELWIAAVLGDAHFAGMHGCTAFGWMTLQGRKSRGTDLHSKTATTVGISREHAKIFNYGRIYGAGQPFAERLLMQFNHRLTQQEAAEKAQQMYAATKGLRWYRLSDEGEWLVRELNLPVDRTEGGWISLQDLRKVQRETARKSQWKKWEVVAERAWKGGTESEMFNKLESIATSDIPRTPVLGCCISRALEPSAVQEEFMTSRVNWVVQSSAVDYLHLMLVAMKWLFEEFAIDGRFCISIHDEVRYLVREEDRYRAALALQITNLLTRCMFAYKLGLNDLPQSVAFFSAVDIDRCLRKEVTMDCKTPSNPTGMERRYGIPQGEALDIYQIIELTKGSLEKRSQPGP
Sequence of POLγA L304R;POLγB (Q9UHN1 25-485, chain 2 of 2): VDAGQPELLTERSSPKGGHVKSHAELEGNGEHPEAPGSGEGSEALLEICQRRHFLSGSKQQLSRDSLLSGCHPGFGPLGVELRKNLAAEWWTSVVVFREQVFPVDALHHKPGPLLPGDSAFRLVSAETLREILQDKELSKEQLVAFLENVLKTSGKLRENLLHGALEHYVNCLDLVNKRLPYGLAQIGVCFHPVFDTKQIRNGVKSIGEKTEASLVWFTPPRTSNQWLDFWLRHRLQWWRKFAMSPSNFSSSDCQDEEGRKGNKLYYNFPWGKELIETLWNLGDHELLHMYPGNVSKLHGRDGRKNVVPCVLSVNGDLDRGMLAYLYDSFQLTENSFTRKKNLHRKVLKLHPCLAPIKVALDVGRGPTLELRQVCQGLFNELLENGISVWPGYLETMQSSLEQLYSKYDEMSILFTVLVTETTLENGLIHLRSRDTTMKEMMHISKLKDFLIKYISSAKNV

POLγA S305R;POLγB = POLγA S305R;POLγB (human?;human?, UniProt P54098;Q9UHN1 26-1239;25-485, S305R|)
Sequence of POLγA S305R;POLγB (P54098 26-1239 S305R, chain 1 of 2): as the sequence (P54098 26-1239 L304R, chain 1 of 2) above, with R279L, S280R counted along it
Sequence of POLγA S305R;POLγB (Q9UHN1 25-485, chain 2 of 2): as the sequence (Q9UHN1 25-485, chain 2 of 2) above

POLγA R232H;POLγB = POLγA R232H;POLγB (human?;human?, UniProt P54098;Q9UHN1 26-1239;25-485, R232H|)
Sequence of POLγA R232H;POLγB (P54098 26-1239 R232H, chain 1 of 2): as the sequence (P54098 26-1239 L304R, chain 1 of 2) above, with R207H, R279L counted along it
Sequence of POLγA R232H;POLγB (Q9UHN1 25-485, chain 2 of 2): as the sequence (Q9UHN1 25-485, chain 2 of 2) above

POLγA G268A;POLγB = POLγA G268A;POLγB (human?;human?, UniProt P54098;Q9UHN1 26-1239;25-485, G268A|)
Sequence of POLγA G268A;POLγB (P54098 26-1239 G268A, chain 1 of 2): as the sequence (P54098 26-1239 L304R, chain 1 of 2) above, with G243A, R279L counted along it
Sequence of POLγA G268A;POLγB (Q9UHN1 25-485, chain 2 of 2): as the sequence (Q9UHN1 25-485, chain 2 of 2) above

POLγA R275Q;POLγB = POLγA R275Q;POLγB (human?;human?, UniProt P54098;Q9UHN1 26-1239;25-485, R275Q|)
Sequence of POLγA R275Q;POLγB (P54098 26-1239 R275Q, chain 1 of 2): as the sequence (P54098 26-1239 L304R, chain 1 of 2) above, with R250Q, R279L counted along it
Sequence of POLγA R275Q;POLγB (Q9UHN1 25-485, chain 2 of 2): as the sequence (Q9UHN1 25-485, chain 2 of 2) above

Measured: binding result

Sequence of POLγA H277L;POLγB (P54098 26-1239 H277L, chain 1 of 2): as the sequence (P54098 26-1239 L304R, chain 1 of 2) above, with H252L, R279L counted along it
Sequence of POLγA H277L;POLγB (Q9UHN1 25-485, chain 2 of 2): as the sequence (Q9UHN1 25-485, chain 2 of 2) above
Sequence of POLγA G303R;POLγB (P54098 26-1239 G303R, chain 1 of 2): as the sequence (P54098 26-1239 L304R, chain 1 of 2) above, with G278R, R279L counted along it
Sequence of POLγA G303R;POLγB (Q9UHN1 25-485, chain 2 of 2): as the sequence (Q9UHN1 25-485, chain 2 of 2) above

B1: primed DNA template (20/35-mer) (dsDNA)
DNA 1: CGGTCGAGTCTAGAGGAGCC
DNA 2: GACTACGTCTATCCGGGCTCCTCTAGACTCGACCG
binds: all assays above

Source: PMC4557304
